The values that follow come from paper PMC9780223, “Structural insights into the covalent regulation of PAPP-A activity by proMBP and STC2” (Cell Discovery, 2022).

B3: pregnancy-associated plasma protein A (PAPP-A), endogenous, from pregnant human plasma (enzyme, human (endogenous in pregnant plasma), UniProt Q13219 82-1627, looked up)
chain: EARGATEEPSPPSRALYFSGRGEQLRLRADLELPRDAFTLQVWLRAEGGQRSPAVITGLYDKCSYISRDRGWVVGIHTISDQDNKDPRYFFSLKTDRARQVTTINAHRSYLPGQWVYLAATYDGQFMKLYVNGAQVATSGEQVGGIFSPLTQKCKVLMLGGSALNHNYRGYIEHFSLWKVARTQREILSDMETHGAHTALPQLLLQENWDNVKHAWSPMKDGSSPKVEFSNAHGFLLDTSLEPPLCGQTLCDNTEVIASYNQLSSFRQPKVVRYRVVNLYEDDHKNPTVTREQVDFQHHQLAEAFKQYNISWELDVLEVSNSSLRRRLILANCDISKIGDENCDPECNHTLTGHDGGDCRHLRHPAFVKKQHNGVCDMDCNYERFNFDGGECCDPEITNVTQTCFDPDSPHRAYLDVNELKNILKLDGSTHLNIFFAKSSEEELAGVATWPWDKEALMHLGGIVLNPSFYGMPGHTHTMIHEIGHSLGLYHVFRGISEIQSCSDPCMETEPSFETGDLCNDTNPAPKHKSCGDPGPGNDTCGFHSFFNTPYNNFMSYADDDCTDSFTPNQVARMHCYLDLVYQGWQPSRKPAPVALAPQVLGHTTDSVTLEWFPPIDGHFFERELGSACHLCLEGRILVQYASNASSPMPCSPSGHWSPREAEGHPDVEQPCKSSVRTWSPNSAVNPHTVPPACPEPQGCYLELEFLYPLVPESLTIWVTFVSTDWDSSGAVNDIKLLAVSGKNISLGPQNVFCDVPLTIRLWDVGEEVYGIQIYTLDEHLEIDAAMLTSTADTPLCLQCKPLKYKVVRDPPLQMDVASILHLNRKFVDMDLNLGSVYQYWVITISGTEESEPSPAVTYIHGSGYCGDGIIQKDQGEQCDDMNKINGDGCSLFCRQEVSFNCIDEPSRCYFHDGDGVCEEFEQKTSIKDCGVYTPQGFLDQWASNASVSHQDQQCPGWVIIGQPAASQVCRTKVIDLSEGISQHAWYPCTISYPYSQLAQTTFWLRAYFSQPMVAAAVIVHLVTDGTYYGDQKQETISVQLLDTKDQSHDLGLHVLSCRNNPLIIPVVHDLSQPFYHSQAVRVSFSSPLVAISGVALRSFDNFDPVTLSSCQRGETYSPAEQSCVHFACEKTDCPELAVENASLNCSSSDRYHGAQCTVSCRTGYVLQIRRDDELIKSQTGPSVTVTCTEGKWNKQVACEPVDCSIPDHHQVYAASFSCPEGTTFGSQCSFQCRHPAQLKGNNSLLTCMEDGLWSFPEALCELMCLAPPPVPNADLQTARCRENKHKVGSFCKYKCKPGYHVPGSSRKSKKRAFKTQCTQDGSWQEGACVPVTCDPPPPKFHGLYQCTNGFQFNSECRIKCEDSDASQGLGSNVIHCRKDGTWNGSFHVCQEMQGQCSVPNELNSNLKLQCPDGYAIGSECATSCLDHNSESIILPMNVTVRDIPHWLNPTRVERVVCTAGLKWYPHPALIHCVKGCEPFMGDNYCDAINNRAFCNYDGGDCCTSTVKTKKVTPFPMSCDLQGDCACRDPQAQEHSRKDLRGYSHG
modifications: glycosylation sites assigned in the density (positions not given)
notes: pregnancy-associated plasma protein A, human, full-length mature PAPP-A, Arg1-Gly1547; numbers count on: the mature protein; source: purified from pregnant human plasma as the PAPP-A·proMBP complex (PEG6000, SOURCE-15Q, MonoS, Superose-6)

Data set [1] addresses B3. Briefly: cryo-EM structure; PAPP-A·proMBP complex purified from pregnant human plasma, 0.2 mg/mL, in PBS pH 7.4; 2:2 map with C2 symmetry and half map after symmetry expansion. To be noted: both partners purified.
In data set [2] the target is purified recombinant PAPP-A free of STC2 (apo PAPP-A) (human, UniProt Q13219 82-1627, fluorescently labeled with Protein Labeling Kit RED-NHS (in MST)). The data set can be described thus: MST; RED-NHS labeled PAPP-A (24 nM, mixed with an equal volume of ligand), ligand serially diluted; PBS with 0.05% Tween-20, room temperature, 30 min; 1:1 binding mode; n = 3. To be noted: both partners purified.

Data set [3] deals with the molecule itself. The data set can be described thus: cryo-EM structure; PAPP-A·proMBP complex purified from pregnant human plasma, 0.2 mg/mL, in PBS pH 7.4; 2:2 map with C2 symmetry and half map after symmetry expansion.

B1: proform of eosinophil major basic protein (proMBP), endogenous, from pregnant human plasma (natural protein, human (endogenous in pregnant plasma), UniProt P13727 17-222, looked up)
chain: LHLRSETSTFETPLGAKTLPEDEETPEQEMEETPCRELEEEEEWGSGSEDASKKDGAVESISVPDMVDKNLTCPEEEDTVKVVGIPGCQTCRYLLVRSLQTFSQAWFTCRRCYRGNLVSIHNFNINYRIQCSVSALNQGQVWIGGRITGSGRCRRFQWVDGSRWNFAYWAAHQPWSRGGHCVALCTRGGHWRRAHCLRRLPFICSY
notes: proform of eosinophil major basic protein, human, encoded by PRG2; only residues 88-222 traced in the map, residues 1-87 invisible; Secreted proform; the signal peptide should be absent (surmise); Model built on PDB 1H8U; also called PM; PRG2; source: purified from pregnant human plasma as the PAPP-A·proMBP complex (PEG6000, SOURCE-15Q, MonoS, Superose-6)
Take B1: the binding result in data set [1] is recorded as “binds”.

B2: recombinant proMBP (modulator protein) (natural protein, UniProt P13727 17-222, looked up)
chain: LHLRSETSTFETPLGAKTLPEDEETPEQEMEETPCRELEEEEEWGSGSEDASKKDGAVESISVPDMVDKNLTCPEEEDTVKVVGIPGCQTCRYLLVRSLQTFSQAWFTCRRCYRGNLVSIHNFNINYRIQCSVSALNQGQVWIGGRITGSGRCRRFQWVDGSRWNFAYWAAHQPWSRGGHCVALCTRGGHWRRAHCLRRLPFICSY
notes: proform of eosinophil major basic protein, encoded by PRG2; construct not described; source: co-expressed with PAPP-A for the cleavage assay
What is called Kd is the constant that tells how readily two partners part at equilibrium. In the case of B2, in data set [2], the Kd was about 6.15 µM.

One may read the stoichiometry N as the number of molecules, sites or subunits per partner or assembly. In the case of B3, the “stoichiometry N” value in data set [3] came out at 2.
